This is an account of results in US20220089777A1 (ARONORA, published 2022).

Assay [1] concerns the target T1, human coagulation factor XI (human, UniProt P03951 19-625). Description: cell-based or functional assay.
For assay [2], the target named is T2, mouse coagulation factor XI (mouse, UniProt Q91Y47 19-624).
T2 construct: also called mouse FXI; mFXI
Briefly: solid phase binding assay, biotinylated 14E11 on immobilized mouse FXI.

The target in assay [3] is human activated coagulation factor XI (FXIa) (human) (UniProt P03951). Briefly: earlier solid phase binding assay (FIG. 2D), biotinylated 14E11 on immobilized FXIa.
Assay [4] shares this target. Briefly: solid phase binding assay, biotinylated 14E11 on immobilized human FXIa.
Assay [5] concerns the target T1, human coagulation factor XI. Briefly: solid phase binding assay, biotinylated 14E11 on immobilized human FXI.
The target is the same in assay [6]. Description: solid phase binding assay, biotinylated antibody on immobilized FXI, apparent Kd.
The target of assay [7] is T2, mouse coagulation factor XI. The description is as above.
Assay [8] deals with T1, human coagulation factor XI. Briefly: earlier solid phase binding assay (FIG. 2D), biotinylated 14E11 on immobilized FXI.
For assay [9], the target named is T2, mouse coagulation factor XI. The assay is described as above.
Assay [10] concerns the target T3, human activated coagulation factor XI (FXIa) (human, UniProt P03951 19-625).
T3 construct: also called human FXIa; hFXIa
Briefly: solid phase binding assay, biotinylated antibody on immobilized FXIa, apparent Kd.
Procedure: Microtiter plates were coated with FXI or FXIa (2 μg/ml, 100 μL/well) in 50 mmol/L Na₂CO₃ pH 9.6 was incubated overnight at 4° C. in Immulon 2HB microtiter plates (Thermo Scientific). Wells were blocked with 150 μL phosphate buffered saline (PBS) with 2% BSA for 1 hour at room temperature. […] After washing with PBS-0.1% Tween-20 (PBS T), 100 μL streptavidin-horse-radish-peroxidase (ThermoFisher Scientific, 1:8000 dilution in FIBS) was added, and incubated at room temperature for 90 minutes. After washing with PBS-T, 100 μL substrate solution (12 mL 30 mmol/L citric acid; 100 mmol/L Na₂HPO₄, pH 5.0; and 1 o-phenylenediamine dihydrochloride tablet, 12 μL 30% H₂O₂) was added. Reactions were stopped after 10 min with 50 μL 2.5 M H₂SO₄. […] The data was analyzed by non-linear regression analysis and the apparent Kd (equilibrium dissociation constant) was calculated as the concentration of AB023 needed to achieve half-max binding at equilibrium using GraphPad Prism (v. 5.0).

Take “14E11, murine monoclonal anti-FXI antibody”: the aPTT of plasma, antibody concentration at maximum inhibition in [1] lay in the range of 25 to 50 nM. The EC50 (read off the curve) in [2], in [4] and in assay [5] was 3 pM each time. The Kd in [3] was 2 to 3 pM; in [6] it was 390 pM; in [7], 70 pM; in assay [8] it was 2 to 3 pM; in [9] it was 2 to 3 pM.

B1: AB023, humanized anti-FXI monoclonal antibody (variant VH3/Vκ3, clone 3G3) (antibody, V domains shown)
VH: QVQLQESGPGLVKPSETLSITCTVSGFSLTGYGIYWVRQPPGKGLEWLGMIWGDGRTDYNSALKSRVTISKDNSKSQVSLKLSSVTAADTARYYCARDYYGSKDYWGQGTTVTVSS
VL: DIQMTQSPSSLSASVGDRVTITCKASQDVSTAVAWYQQKPGKAPKLLIYLTSYRNTGVPDRFSGSGSGTDFTFTISSLQPEDIAVYYCQQHYKTPYSFGGGTKVEIKR
notes: Human IgG4 with S241P (Kabat) hinge modification, kappa light chain; also called A13023; A8023
With B1, the “fold prolongation of aPTT of FXI deficient plasma + 10 µg/mL FXI after adding 100 µg/mL AB023” value in assay [1] is around 2 fold. The results for the Kd in assay [10], in assay [6] and in assay [7] were 1300 pM, 3200 pM and 160 pM, respectively.
